This experiment concerns the target T1, ATF4-275 (isolated transactivation domain of activating transcription factor 4) (human, UniProt P18848 1-275).
T1 construct: 15N-labelled (expressed in minimal medium) for the NMR titration; also called isolated TAD; ATF4 TAD; not shown: GST, N-terminal, cleaved
T1 sequence (looked up): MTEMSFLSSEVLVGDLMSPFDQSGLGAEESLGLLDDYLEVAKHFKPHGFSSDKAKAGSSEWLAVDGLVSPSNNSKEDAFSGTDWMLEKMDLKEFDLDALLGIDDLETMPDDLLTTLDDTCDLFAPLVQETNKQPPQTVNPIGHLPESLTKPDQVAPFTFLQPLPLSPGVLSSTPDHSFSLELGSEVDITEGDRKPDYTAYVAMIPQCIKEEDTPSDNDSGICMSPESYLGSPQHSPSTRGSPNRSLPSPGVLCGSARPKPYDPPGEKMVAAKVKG
The experiment can be described thus: NMR titration; 15N-labeled ATF4-275 titrated with increasing concentrations of unlabeled ATF4-bZip; 2D 1H-15N TROSY-HSQC, amide crosspeak intensity ratios; NMR samples in 20 mM MES pH 6.5, 50 mM NaCl. The following applies: both partners purified.

B1: ATF4-bZip (isolated basic-leucine zipper domain of activating transcription factor 4) (domain or fragment, human, UniProt P18848 276-351, looked up)
chain: EKLDKKLKKMEQNKTAATRYRQKKRAEQEALTGECKELEKKNEALKERADSLAKEIQYLKDLIEEVRKARGKKRVP
notes: The limits 276-351 are those printed for the bZip domain; also called bZip domain; isolated bZip domain; source: E. coli BL21(DE3), purified (Glutathione-Sepharose, TEV cleavage, Superdex 200 gel filtration); not shown: GST, N-terminal, cleaved
In the case of B1, the binding result is listed as “binds”.

The record behind these values is publication PMC8881488, “Intricate coupling between the transactivation and basic-leucine zipper domains governs phosphorylation of transcription factor ATF4 by casein kinase 2” (The Journal of Biological Chemistry, 2022).
